Here are results for three substances from PMC4039629.

In one experiment the target is GST-MYC(1-263) (human). As to the kind of experiment: pull-down + cross-linking.
The target in another experiment is GST-MYC 1-98 (human). As to the kind of experiment: pull-down.
In experiment [1] the target is GST-MYC(2-108) E100A (human). As to the kind of experiment: pull-down.
Experiment [2] has as its target GST-MYC(2-108) E54A (human). As to the kind of experiment: pull-down.
The target in experiment [3] is GST-MYC(2-108) E[54,100]A (human). As to the kind of experiment: pull-down.

On to “GCN5 acetyltransferase, endogenous in HeLa cells (from UniProt Q92830 1-837) (enzyme)”, for which the percent of the protein in the extract crosslinked in the experiment with GST-MYC(1-263) (human) worked out at 1%.

For the substance “purified recombinant human GCN5-S (pRSETA-His6-GCN5-S) (enzyme)”, in the experiment with GST-MYC 1-98 (human), the percent reduction of GCN5 binding on deletion of residues 99-108 came to 90%. Further, the percent reduction of GCN5 binding against wt GST-MYC(2-108) in experiment [1] is 20%; in experiment [2], 40%; in experiment [3] it was 50%.

For “transcription/transformation-associated protein (TRRAP), endogenous in HeLa cells (from UniProt Q9Y4A5 1-3859) (natural protein)”, in the experiment with GST-MYC(1-263) (human), the percent of the protein in the extract crosslinked came to 1%.
